Experimental data as given in PMC2912431.

How the values were obtained:
[1] = biological target: C28A UreGStr (Klebsiella aerogenes) (UniProt P18319); assay: SEC
[2] = biological target: Klebsiella aerogenes UreE (Klebsiella aerogenes); assay: SEC

Substance “C28A UreGStr (from UniProt P18319 1-205) (natural protein)” has a stoichiometry N [1] of 2.
In the case of “Klebsiella aerogenes UreE (natural protein)”, the stoichiometry N [2] is reported as 2.
